Results on one molecule are retold here after article doi:10.1101/2023.05.09.539743 (bioRxiv, 2023).

This experiment has as its target T1, His-ARS2^147-871 (human, UniProt Q9BXP5-4 147-871).
T1 sequence (looked up): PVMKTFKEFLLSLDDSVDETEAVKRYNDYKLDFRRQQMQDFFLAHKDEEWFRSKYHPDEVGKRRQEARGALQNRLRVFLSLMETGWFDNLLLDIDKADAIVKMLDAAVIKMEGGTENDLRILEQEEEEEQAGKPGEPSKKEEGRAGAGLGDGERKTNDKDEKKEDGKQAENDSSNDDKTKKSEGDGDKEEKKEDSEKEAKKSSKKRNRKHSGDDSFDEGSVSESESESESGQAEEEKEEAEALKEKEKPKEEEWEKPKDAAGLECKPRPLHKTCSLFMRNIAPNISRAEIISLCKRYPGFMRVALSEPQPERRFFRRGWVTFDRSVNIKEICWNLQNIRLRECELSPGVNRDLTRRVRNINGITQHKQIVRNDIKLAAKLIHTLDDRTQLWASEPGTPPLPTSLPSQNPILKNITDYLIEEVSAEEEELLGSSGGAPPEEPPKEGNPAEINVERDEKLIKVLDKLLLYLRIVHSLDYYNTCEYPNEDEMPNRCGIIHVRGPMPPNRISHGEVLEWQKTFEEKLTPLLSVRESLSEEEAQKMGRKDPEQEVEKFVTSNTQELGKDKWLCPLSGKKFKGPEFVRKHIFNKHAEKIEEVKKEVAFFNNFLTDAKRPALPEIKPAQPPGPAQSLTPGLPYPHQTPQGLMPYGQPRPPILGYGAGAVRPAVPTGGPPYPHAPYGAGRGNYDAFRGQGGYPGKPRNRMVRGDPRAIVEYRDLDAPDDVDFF
The experiment in a line: pull-down.

On to SSGLSPKEEGELEDGEISDDDNNSQ (domain or fragment, human, UniProt O60293 11-35, looked up) [His-MBP-Z1^11-35(WT)], for which the binding result is recorded as “binds”.
